The chains are these.
B1: TDP-43 N-terminal domain (NTD), wild-type, residues 1-80 (domain or fragment)
chain: GHMMSEYIRVTEDENDEPIEIPSEDDGTVLLSTVTAQFPGACGLRYRNPVSQCMRGVRLVEGILHAPDAGWGNLVYVVNYPKD
notes: three additional N-terminal residues left by the cloning strategy and TEV cleavage; TDP-43 N-terminal domain, residues 1-80 (codon of N81 changed to a stop codon); 15N-labelled or natural abundance, depending on the NMR experiment; also called TDP-43 NTD; NTD WT; source: E. coli BL21 Star DE3, purified (Histrap, TEV cleavage, SEC); not shown: Thioredoxin, N-terminal, cleaved; His6, N-terminal, …
B2: TDP-43 NTD S48E, residues 1-80 (domain or fragment)
chain: B1 chain with S51E
notes: three additional N-terminal residues left by the cloning strategy and TEV cleavage; TDP-43 N-terminal domain, residues 1-80, phosphomimetic S48E; 15N-, 13C/15N-labelled or natural abundance, depending on the NMR experiment; also called S48E TDP-43 NTD; S48E 1-80 NTD; source: E. coli BL21 Star DE3, purified (Histrap, TEV cleavage, SEC); not shown: Thioredoxin, N-terminal, cleaved; His6, …

Data set [1] deals with the molecule itself. The experiment in a line: cross-linking; amine cross-linker BS3, 20 mM HEPES pH 7.5, 150 mM NaCl, 1 mM DTT, room temperature 30 min, SDS-PAGE; samples of 10-200 μM.
Data set [2] concerns the molecule itself. Description: AUC; sedimentation equilibrium, 28.28-89.23 μM, 150 mM NaCl, 20°C, 12,000, 25,000 and 43,000 rpm; isodesmic model, single KD for each association step.
Data set [3] concerns the molecule itself. Description: CG-MALS; composition gradient multi-angle light scattering, 20 mM HEPES pH 6.8, 150 mM NaCl, 1 mM DTT; isodesmic self-association model, each addition of a monomer.
For data set [4], the target named is B1. Description: NMR titration; 1H-15N HSQC chemical shift deviations of 10 μM 15N-labelled protein with 90 μM natural abundance partner, against 10 μM alone. The note with it: both partners purified.
For data set [5], the target named is TDP-43 NTD S48E, residues 1-80 (UniProt Q13148). Description: CG-MALS; composition gradient multi-angle light scattering, 20 mM HEPES pH 6.8, 150 mM NaCl, 1 mM DTT; isodesmic self-association model, each addition of a monomer.

Substitutions are numbered along the chain they refer to. In names and notes the source's numbering stands.

Usually stoichiometry N stands for a count of units in the complex or per binding partner. As a reminder, the Kd is the free concentration of one partner at which half of the binding sites on the other are occupied at equilibrium, for simple one-to-one binding. Higher therefore signals lower affinity. Take B1: the “stoichiometry N” value in data set [1] is ≤ 7. Moreover, the Kd was ~40 µM in data set [2] and 95 µM in data set [3].
On to B2, for which the binding result in data set [4] is on record as “binds”. The molecule further came in with a Kd in data set [5] of 2000 µM.
